What was measured:
[1] = molecular target: FcRII (Fc gamma receptor II on K562 cells) (UniProt P12318); assay: cell-based or functional assay
[2] = molecular target: ヒトCD3抗原 (human CD3 antigen on the surface of human T cells) (human) (UniProt P07766); assay: competition with 125I-labelled mouse M291 on IL-2-activated human T cells; affinity by the method of Berzofsky and Berkower
Sequence of UniProt P07766 (P07766 23-207): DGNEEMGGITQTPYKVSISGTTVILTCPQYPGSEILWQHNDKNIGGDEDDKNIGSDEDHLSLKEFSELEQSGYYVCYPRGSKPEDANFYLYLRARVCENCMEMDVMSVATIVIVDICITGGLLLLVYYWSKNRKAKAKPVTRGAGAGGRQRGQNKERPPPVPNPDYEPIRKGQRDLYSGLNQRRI

Sequence of UniProt P12318 (P12318 34-317): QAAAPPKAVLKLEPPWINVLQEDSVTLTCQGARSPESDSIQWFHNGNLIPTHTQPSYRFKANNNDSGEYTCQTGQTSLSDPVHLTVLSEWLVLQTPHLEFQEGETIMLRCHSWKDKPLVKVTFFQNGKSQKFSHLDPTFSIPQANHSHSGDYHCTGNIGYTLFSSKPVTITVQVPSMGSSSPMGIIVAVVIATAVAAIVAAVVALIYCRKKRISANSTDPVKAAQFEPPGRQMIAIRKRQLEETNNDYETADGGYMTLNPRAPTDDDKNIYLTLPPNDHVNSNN

Substance	K562細胞の特異的溶解 (reverse lysis, 51Cr release) [1] [%]	Ka [2] [M⁻¹]
キメラOKT3 IgG2 (chimeric OKT3, wild-type human IgG2) (from UniProt P01859 1-326) (antibody)	< 32	–
ヒト化M291 IgG1 (humanized M291, human IgG1) (from UniProt P01857 1-330) (antibody)	–	1.6e+09

— patent JP2002506420A
